Measured values: US20180009843A1
Numbering of substitutions follows the chain as printed. No end group written: not given here.

Columns and labels:
[1] = molecular target: T1, CD1d molecule expressed on JAWS2 cells, P11609
T1 chain: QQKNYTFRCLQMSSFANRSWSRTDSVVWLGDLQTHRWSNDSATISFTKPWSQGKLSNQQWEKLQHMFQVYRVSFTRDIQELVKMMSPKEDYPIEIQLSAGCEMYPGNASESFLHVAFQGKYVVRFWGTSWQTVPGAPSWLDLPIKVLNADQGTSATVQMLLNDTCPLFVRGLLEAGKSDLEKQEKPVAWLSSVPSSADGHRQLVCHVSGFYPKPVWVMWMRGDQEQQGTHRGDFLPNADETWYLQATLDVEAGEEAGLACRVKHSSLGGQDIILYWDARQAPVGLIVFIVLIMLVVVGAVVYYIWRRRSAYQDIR

[2] = molecular target: T cell receptors of CD4+ NKT cells from the spleen of BALB/c mice given intranasal Der p 1; assay: tetramer staining of spleen CD4+ T cells, facs
[3] = molecular target: T cell receptors of NKT cells among spleen CD4+ T cells of hemophilia A mice immunized with Factor VIII; assay: fluorochrome-labeled tetramer, 30 minutes at 4 C, Facs

B1: Der p 1 in natural sequence (SEQ ID17) (protein)
chain: TNACSINGNAPAEIDLRQMRTVTPIRMQGGCGSCWAFSGVAATESAYLAYRNQSLDLAEQELVDCASQHGCHGDTIPRGIEYIQHNGVVQESYYRYVAREQSCRRPNAQRFGISNYCQIYPPNVNKIREALAQTHSAIAVIIGIKDLDAFRHYDGRTIIQRDNGYQPNYHAVNIVGYSNAQGVDYWIVRNSWDTNWGDNGYGYFAANIDLMMIEEYPYVVIL
Which “production of cytokines such as IFN-gamma and IL-4 as markers of NKT activation” value [1] does the source give for B1 here?
Its value is “a significant production of cytokines was present”.

B2: mutated Der p 1 (SEQ ID16) (protein)
chain: B1 chain with F37S, H135S, Y216S
With B2 as the binder, how does the “production of IFN-gamma and IL-4 taken as an indication of NKT activation” value [1] read?
The value was “NKT cells obtained from mice immunized with natural sequence Der p 1 failed to be activated when incubated in the presence of JAWS2 cells loaded with mutated Der p 1”.

B3: CD1d tetramers loaded with peptide of SEQ ID13 (peptide-MHC, part only; not given: CD1d and beta-2 microglobulin, part only)
peptide: FSGVAAT
For B3, which percentage of cells stained with the tetramers [2] is on record?
Its percentage of cells stained with the tetramers is 10%.

B4: CD1d tetramers loaded with peptide of SEQ ID14 (peptide-MHC, part only; not given: CD1d and beta-2 microglobulin, part only)
peptide: HSAIAAVI
With B4 as the binder, how does the percentage of cells stained with the tetramers [2] read?
Its percentage of cells stained with the tetramers is 10%.

B5: CD1d tetramers loaded with peptide of SEQ ID15 (peptide-MHC, part only; not given: CD1d and beta-2 microglobulin, part only)
peptide: YPYVVIL
How did the percentage of cells stained with the tetramers [2] turn out when B5 was run?
The percentage of cells stained with the tetramers was 10%.

B6: CD1d tetramers loaded with peptide of SEQ ID1 (44pept) (peptide-MHC, part only; not given: peptide flanks, CD1d, beta-2 microglobulin, part only)
peptide, part: FCHISSH
modifications: also: loaded on fluorochrome-labelled CD1d tetramers
For B6, which % of NKT cells recognizing the tetramer [3] is on record?
Its % of NKT cells recognizing the tetramer is less than 45%.
